Measurements taken from patent publication US20240018240A1 (Hoffmann-La Roche, published 2024).
Changes are numbered by the printed parent chain.

T1: cynomolgus PLAP (ALPP) expressed on CHO-K1 cells (cynomolgus, UniProt P05187 23-452 (human entry))
T1 chain: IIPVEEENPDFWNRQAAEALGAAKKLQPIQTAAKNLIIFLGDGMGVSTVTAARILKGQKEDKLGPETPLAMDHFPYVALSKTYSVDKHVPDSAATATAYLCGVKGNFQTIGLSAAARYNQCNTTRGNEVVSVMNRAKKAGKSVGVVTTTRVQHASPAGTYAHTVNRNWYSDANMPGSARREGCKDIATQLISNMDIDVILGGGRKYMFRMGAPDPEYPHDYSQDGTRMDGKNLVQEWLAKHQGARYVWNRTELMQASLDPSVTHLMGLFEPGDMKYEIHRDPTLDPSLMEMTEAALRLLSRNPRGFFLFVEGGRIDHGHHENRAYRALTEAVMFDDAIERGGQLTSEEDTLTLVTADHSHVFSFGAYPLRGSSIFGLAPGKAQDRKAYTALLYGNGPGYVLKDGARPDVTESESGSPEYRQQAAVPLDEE

B1: PLAP H1 CD3 P035.093 TCB (bispecific antibody, human IgG1, kappa, L234A L235A)
heavy 1: not shown
heavy 2: QVQLQESGPGLVKPSETLSLTCTVSGFSLTSYGVSWIRQPPGKGLEWIGVIWEDGSTNYHSALISRVTISVDTSKNQFSLKLSSVTAADTAVYYCARPHYGSSYVGAMEYWGAGTTVTVSSASTKGPSVFPLAPSSKSTSGGTAALGCLVEDYFPEPVTVSWNSGALTSGVHTFPAVLQSSGLYSLSSVVTVPSSSLGTQTYICNVNHKPSNTKVDEKVEPKSCDKTHTCPPCPAPEAAGGPSVFLFPPKPKDTLMISRTPEVTCVVVDVSHEDPEVKFNWYVDGVEVHNAKTKPREEQYNSTYRVVSVLTVLHQDWLNGKEYKCKVSNKALGAPIEKTISKAKGQPREPQVCTLPPSRDELTKNQVSLSCAVKGFYPSDIAVEWESNGQPENNYKTTPPVLDSDGSFFLVSKLTVDKSRWQQGNVFSCSVMHEALHNHYTQKSLSLSP
light 1: DIQMTQSPSSLSASVGDRVTITCRASENIYSYVAWYQQKPGKAPKLLIYNAKSLASGVPSRFSGSGSGTDFTLTISSLQPEDFATYYCQHHYVSPWTFGGGTKLEIKRTVAAPSVFIFPPSDRKLKSGTASVVCLLNNFYPREAKVQWKVDNALQSGNSQESVTEQDSKDSTYSLSSTLTLSKADYEKHKVYACEVTHQGLSSPVTKSFNRGEC
light 2: EVQLLESGGGLVQPGGSLRLSCAASGFTFSSYAMNWVRQAPGKGLEWVSRIRSKYNNYATYYADSVKGRFTISRDDSKNTLYLQMNSLRAEDTAVYYCVRASNFPASYVSYFAYWGQGTLVTVSSASVAAPSVFIFPPSDEQLKSGTASVVCLLNNFYPREAKVQWKVDNALQSGNSQESVTEQDSKDSTYSLSSTLTLSKADYEKHKVYACEVTHQGLSSPVTKSFNRGEC
notes: also called PLAP H1 TCB; PLAP (H1) TCB
B2: PLAP H4 CD3 P035.093 TCB (bispecific antibody, human IgG1, kappa, L234A L235A)
heavy 1: not shown
heavy 2: B1 heavy 2 with F27G, L29I
light 1: B1 light 1
light 2: B1 light 2
notes: also called PLAP H4 TCB
B3: PLAP H2 CD3 P035.093 TCB (bispecific antibody, human IgG1, kappa, L234A L235A)
heavy 1: not shown
heavy 2: B1 heavy 2 with P41A, I69M
light 1: B1 light 1
light 2: B1 light 2
notes: also called PLAP H2 TCB; PLAP (H2) TCB
B4: PLAP H3 CD3orig TCB (bispecific antibody, human IgG1, kappa, L234A L235A)
heavy 1: not shown
heavy 2: B1 heavy 2 with H60N, S61P, A62S, I64K
light 1: B1 light 1
light 2: B1 light 2 with S31T, A101H, S102G, P105G, A106N, Y111W
B5: PLAP H4 CD3orig TCB (bispecific antibody, human IgG1, kappa, L234A L235A)
heavy 1: not shown
heavy 2: B1 heavy 2 with F27G, L29I
light 1: B1 light 1
light 2: B1 light 2 with S31T, A101H, S102G, P105G, A106N, Y111W
B6: PLAP H3 CD3opt TCB (bispecific antibody, human IgG1, kappa, L234A L235A)
heavy 1: not shown
heavy 2: B1 heavy 2 with H60N, S61P, A62S, I64K
light 1: B1 light 1
light 2: B1 light 2 with T28Q, A101H, S102T, N103T, A106S, F112Y, A113G
notes: 2+1 IgG CrossFab, inverted
B7: PLAP H2 CD3orig TCB (bispecific antibody, human IgG1, kappa, L234A L235A)
heavy 1: not shown
heavy 2: B1 heavy 2 with P41A, I69M
light 1: B1 light 1
light 2: B1 light 2 with S31T, A101H, S102G, P105G, A106N, Y111W

target: human ALPG (ALPPL2) expressed on CHO-K1 cells (human, UniProt P10696 20-503); experiment: cell-based or functional assay

EC50 (pM), Jurkat NFAT reporter assay (luminescence, 6 h) [pM] | Binder
40 | B1
34 | B2
22 | B3

target: T2, human PLAP (ALPP) expressed on CHO-K1 cells (human, UniProt P05187 23-506); experiment: cell-based or functional assay
T2 sequence (P05187 23-506): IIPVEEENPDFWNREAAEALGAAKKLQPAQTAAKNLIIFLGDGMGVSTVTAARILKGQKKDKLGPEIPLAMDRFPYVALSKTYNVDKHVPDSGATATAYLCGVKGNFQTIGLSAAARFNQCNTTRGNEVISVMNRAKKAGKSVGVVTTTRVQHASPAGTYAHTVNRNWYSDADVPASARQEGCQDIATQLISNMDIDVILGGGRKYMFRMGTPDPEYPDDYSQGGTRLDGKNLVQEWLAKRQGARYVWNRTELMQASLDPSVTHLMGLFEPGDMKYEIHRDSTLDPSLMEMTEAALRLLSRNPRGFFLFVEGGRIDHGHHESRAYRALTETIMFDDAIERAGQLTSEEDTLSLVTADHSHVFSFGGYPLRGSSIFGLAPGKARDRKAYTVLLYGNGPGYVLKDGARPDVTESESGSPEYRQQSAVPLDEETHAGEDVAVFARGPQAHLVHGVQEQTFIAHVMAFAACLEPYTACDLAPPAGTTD

EC50 (pM), Jurkat NFAT reporter assay (luminescence, 6 h) [pM] | Binder
37 | B1
36 | B2
21 | B3

target: T3, Human CD3ε stalk-Fc(knob)-Avi/CD3δ stalk-Fc(hole) (human); experiment: SPR (Biacore T200, 25°C); TCB captured by anti-PG antibody on CM5 chip, 300 nM human CD3ε/δ injected; relative active concentration
T3 construct: Heterodimer of CD3 delta and CD3 epsilon ectodomains fused to a human Fc domain with knob-into-hole modifications and C-terminal Avi-tag; also called human CD3ε/δ; CD3ε/δ
Procedure: SPR experiments were performed on a Biacore T200 instrument (GE Healthcare) at 25° C. with HBS-P+(10 mM HEPES, 150 mM NaCl pH 7.4, 0.05% Surfactant P20) as running and dilution buffer. Anti-PG antibody (see Example 3) was immobilized by amine coupling (using amine coupling kit, Cytiva #BR100050) at a density of >6000 RU on a CM5 Chip (Sensor Chip CM5, Cytiva #29104988). The 10 nM solutions of TCB molecule samples in HBS-P+ were captured for 30 sec at a flow rate 10 μl/min. Then a 300 nM solution of human CD3ε/δ (see Example 3, SEQ ID NOs 24 and 25) was injected for 150 sec association time and 120 sec dissociation time at a flow rate of 10 μl/min. The regeneration of the surface followed by a 35 sec regeneration step with a 20 mM NaOH solution. The data were analyzed with the Biacore T200 Evaluation and Excel software. For the calculation of relative active concentration (RAC) the binding report point (BRP) was used (the BRP is a standard readout point in SPR, maximum response (unit/value) of interaction between antigen and antibody).

RAC % of CD3 binding, stress A [%] | RAC % of CD3 binding, stress B [%] | RAC % of CD3 binding, unstressed [%] | Binder
100 | 98 | 100 | B1
100 | 98 | 100 | B2
100 | 96 | 100 | B3

target: T4, Human PLAP (soluble, as injected in SPR) (human, UniProt P05187 23-506); experiment: SPR RAC assay (Biacore T200, 25°C); TCB captured by anti-PG antibody on CM3 chip, 100 nM human PLAP injected
T4 construct: also called PLAP target
T4 sequence (P05187 23-506 limits assumed): as the sequence (P05187 23-506) above
Procedure: (§1) SPR experiments were performed on a Biacore T200 instrument (GE Healthcare). For the immobilization. HBS-N pH 7.4 was used as a running buffer (Cytiva #BR100670). Anti-PG antibody (see Example 3) was immobilized by amine coupling (using amine coupling kit, Cytiva #BR100050) at a density of >6000 RU on a CM3 Chip (Cytiva #29104990). The anti-PG antibody stock solution was diluted to a concentration of 25 μg/mL in a 10 mM sodium acetate buffer of pH 5.0 (Cytiva #BR100351). After the immobilization the analysis was performed at 25° C., and using PBS-P+ (Cytiva #28995084) as a running and a dilution buffer. The 5 nM solutions of TCB molecule samples in PBS-P+ were captured for 30 sec at a flow rate 5 μl/min. Then a 100 nM solution of human PLAP was injected for 90 sec association time and 30 sec dissociation time at a flow rate of 8 μl/min. Thereafter, a 200 nM solution of human CD3ε/δ (see Example 3, SEQ ID NOs 24 and 25) was injected for 90 sec association time and 30 sec dissociation time at a flow rate of 8 μl/min. The regeneration of the surface followed by two 60 sec regeneration steps with a 10 mM NaOH solution. The data were analyzed with the Biacore T200 Evaluation and Excel software. For the calculation of relative active concentration (RAC) the binding report point (BRP) was used. To calculate the RAC, the target and antibody concentrations were referenced to the unstressed sample (−80° C.) as 100% comparison. For the normalization of the protein concentration, reference was made to anti-PG antibody capturing (RAC values).

RAC [%] PLAP binding, stress A [%] | RAC [%] PLAP binding, stress B [%] | RAC [%] PLAP binding, unstressed [%] | Binder
99 | 100 | 100 | B4
99 | 103 | 100 | B5
100 | 101 | 100 | B6
100 | 102 | 100 | B7

target: T2, human PLAP (ALPP) expressed on CHO-K1 …; experiment: cell-based or functional assay; remark: another data set of the same source

EC50 (pM), Jurkat NFAT reporter assay to show cynomolgus cross-reactivity [pM] | Binder
98 | B1

Target: T1, cynomolgus PLAP (ALPP) expressed on …
Experiment: cell-based or functional assay

EC50 (pM), Jurkat NFAT reporter assay to show cynomolgus cross-reactivity [pM] | Binder
45 | B1

target: T4, Human PLAP (soluble, as injected in SPR); experiment: SPR single cycle kinetics (Biacore T200, 25°C); TCB captured by anti-PG antibody on CM3 chip, human PLAP as analyte
Procedure: (§2) The binding kinetics of the PLAP TCB molecules generated in Example 17 were characterized by the single cycle kinetic (SSK) assay. For this assay, again the SPR Biacore T200 was used. The immobilization was performed at 25° C. with HBS-N pH 7.4 as a running buffer (Cytiva #BR100670). The anti-PG antibody (see Example 3) was immobilized by amine coupling (using amine coupling kit, Cytiva #BR100050) at a density of >5000 RU on a CM3 Chip (Cytiva #29104990). The anti-PG antibody stock solution was diluted to a concentration of 25 μg/mL in a 10 mM sodium acetate buffer of pH 5.0 (Cytiva #BR100351). After the immobilization the analysis was performed at 25° C., and PBS-P+(Cytiva #28995084) was used as a running and a dilution buffer. The 3 nM solutions of TCB molecule samples in PBS-P+ were captured with anti-PG antibody on a CM3 sensor chip.
(§3) The derived kinetic rate constants and corresponding affinity values (equilibrium dissociation constant KD) are summarized in Table 26 for the CD3 binder and in Table 27 for the PLAP binder. The data were analyzed with the Biacore T200 Evaluation and Excel software.

Kd [nM] | koff [s⁻¹] | kon [M⁻¹ s⁻¹] | Binder
0.009 | 3.87e-05 | 4.32e+06 | B4
0.0496 | 8.91e-05 | 1.8e+06 | B5
0.0097 | 3.99e-05 | 4.12e+06 | B6
0.0181 | 4.45e-05 | 2.46e+06 | B7

target: T3, Human CD3ε stalk-Fc(knob)-Avi/CD3δ …; experiment: SPR single cycle kinetics (Biacore T200, 25°C); TCB captured by anti-PG antibody on CM3 chip, human CD3ε/δ as analyte
Procedure: as §2, §3

Kd [nM] | koff [s⁻¹] | kon [M⁻¹ s⁻¹] | Binder
6.3 | 0.00167 | 267000 | B4
5.7 | 0.00167 | 292000 | B5
2.8 | 0.0136 | 4.79e+06 | B6
6.3 | 0.0017 | 269000 | B7

target: T3, Human CD3ε stalk-Fc(knob)-Avi/CD3δ …; experiment: SPR RAC assay (Biacore T200, 25°C); TCB captured by anti-PG antibody on CM3 chip, 200 nM human CD3ε/δ injected after 100 nM human PLAP
Procedure: as §1

RAC [%] CD3 binding, stress A [%] | RAC [%] CD3 binding, stress B [%] | RAC [%] CD3 binding, unstressed [%] | Binder
97 | 82 | 100 | B4
97 | 78 | 100 | B5
98 | 95 | 100 | B6
96 | 81 | 100 | B7
